± gives the standard error. For some of these results: Variants at the floor of the assay were thinned out.
B1: glmS ribozyme (parent)
chain: AUAAAAGCGCCAGAACUACAGAAAUGUAGUUGACGAGGAGGAGGUUUAUCGAAUUUUCGGCGGAUGCCUCCAAA

Assays:
Details in all cases: with glucosamine-6-phosphate
glucosamine-6-phosphate [1] = variants of: B1; assay: kcat; higher = faster cleavage; RNA array
How it was run: (§1)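 E. coli RNA polymerase transcribed barcoded ribozyme variants in situ on sequenced MiSeq chips, which were tracked via a hybridised Cy3 probe at 37 °C. Tiles were imaged over ~14 h after glucosamine-6-phosphate (40 μM to 10 mM) in HEPES/KCl/Mg(OAc)2 buffer was flowed in. Normalised per-tile medians were fit to one- or two-exponential decays for kobs, and kcat and KM came from weighted Michaelis–Menten fits.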

glucosamine-6-phosphate [2] = variants of: B1; assay: self-cleavage kobs at 160 uM GlcN6P; higher = faster cleavage; RNA array
How it was run: as §1

glucosamine-6-phosphate [3] = variants of: B1; assay: self-cleavage kobs at 10000 uM GlcN6P; higher = faster cleavage; RNA array
How it was run: as §1

glucosamine-6-phosphate [4] = variants of: B1; assay: self-cleavage kobs at 40 uM GlcN6P; higher = faster cleavage; RNA array
How it was run: as §1

glucosamine-6-phosphate [5] = variants of: B1; assay: self-cleavage kobs at 640 uM GlcN6P; higher = faster cleavage; RNA array
How it was run: as §1

glucosamine-6-phosphate [6] = variants of: B1; assay: self-cleavage kobs at 2500 uM GlcN6P; higher = faster cleavage; RNA array
How it was run: as §1

glucosamine-6-phosphate [7] = variants of: B1; assay: KM; higher = weaker cofactor use; RNA array
How it was run: as §1

Variant | kcat (glucosamine-6-phosphate [1]) | self-cleavage kobs at 160 uM GlcN6P (glucosamine-6-phosphate [2]) | self-cleavage kobs at 10000 uM GlcN6P (glucosamine-6-phosphate [3]) | self-cleavage kobs at 40 uM GlcN6P (glucosamine-6-phosphate [4]) | self-cleavage kobs at 640 uM GlcN6P (glucosamine-6-phosphate [5]) | self-cleavage kobs at 2500 uM GlcN6P (glucosamine-6-phosphate [6]) | KM (glucosamine-6-phosphate [7])
G38A C58G | 1.16e-05 ± 3.2e-06 s⁻¹ | < 1e-05 s⁻¹ | < 1e-05 s⁻¹ | – | – | – | –
G38A C68A | < 1e-05 s⁻¹ | – | < 1e-05 s⁻¹ | < 1e-05 s⁻¹ | – | – | –
G37C G38U | < 1e-05 s⁻¹ | – | – | < 1e-05 s⁻¹ | < 1e-05 s⁻¹ | < 1e-05 s⁻¹ | –
G38C C68G | 1.31e-05 ± 3.9e-06 s⁻¹ | – | – | – | – | – | –
G40A A42G | 0.00697 ± 0.0023 s⁻¹ | 0.00046 ± 9.7e-05 s⁻¹ | 0.00783 ± 0.0018 s⁻¹ | 0.000182 ± 2.4e-05 s⁻¹ | 0.00157 ± 0.00024 s⁻¹ | 0.00363 ± 0.00075 s⁻¹ | 1900 ± 820 µM
G37C C68G | 1.8e-05 ± 3.8e-06 s⁻¹ | – | – | – | – | – | –
A36C C71G | 1.27e-05 ± 2.5e-06 s⁻¹ | – | – | – | – | – | –
A36C C71A | < 1e-05 s⁻¹ | – | – | – | – | – | –
A39C U56A | 0.00331 ± 0.00086 s⁻¹ | 0.000129 ± 3.6e-05 s⁻¹ | 0.00238 ± 0.00034 s⁻¹ | 5.87e-05 ± 1.3e-05 s⁻¹ | 0.000412 ± 5.2e-05 s⁻¹ | 0.00133 ± 0.00019 s⁻¹ | 4000 ± 1500 µM
A36G U54G | < 1e-05 s⁻¹ | – | – | < 1e-05 s⁻¹ | – | – | –
A39U A53U | 0.0113 ± 0.0033 s⁻¹ | 0.000985 ± 0.00016 s⁻¹ | 0.0126 ± 0.0017 s⁻¹ | 0.000461 ± 5e-05 s⁻¹ | 0.00368 ± 0.00054 s⁻¹ | 0.00619 ± 0.001 s⁻¹ | 1260 ± 530 µM
A36U C50A | < 1e-05 s⁻¹ | < 1e-05 s⁻¹ | – | – | – | – | –
C34U U54C C68G | 1.64e-05 ± 4.9e-06 s⁻¹ | – | – | – | – | – | –
A39G U47A | 0.0304 ± 0.014 s⁻¹ | 0.00231 ± 0.00088 s⁻¹ | 0.0441 ± 0.011 s⁻¹ | 0.00119 ± 0.00019 s⁻¹ | 0.00788 ± 0.0025 s⁻¹ | 0.0164 ± 0.005 s⁻¹ | –
A39U C67G | 0.00521 ± 0.0013 s⁻¹ | 0.000514 ± 7.5e-05 s⁻¹ | 0.00516 ± 0.00068 s⁻¹ | 0.000162 ± 1.8e-05 s⁻¹ | 0.00221 ± 0.00032 s⁻¹ | 0.00196 ± 0.00069 s⁻¹ | 1290 ± 420 µM
A39U C67U | 0.0107 ± 0.0018 s⁻¹ | 0.000573 ± 8.1e-05 s⁻¹ | 0.00878 ± 0.00079 s⁻¹ | 0.000223 ± 1.9e-05 s⁻¹ | 0.00228 ± 0.00025 s⁻¹ | 0.00631 ± 0.001 s⁻¹ | 2220 ± 500 µM
A39U C67A | 0.00981 ± 0.0028 s⁻¹ | 0.000759 ± 0.00012 s⁻¹ | 0.00878 ± 0.0012 s⁻¹ | 0.000197 ± 2.5e-05 s⁻¹ | 0.0015 ± 0.00027 s⁻¹ | 0.00477 ± 0.0011 s⁻¹ | 2330 ± 910 µM
G35A C71G | < 1e-05 s⁻¹ | < 1e-05 s⁻¹ | – | – | < 1e-05 s⁻¹ | – | –
G40A C50G | < 1e-05 s⁻¹ | – | – | – | – | – | –

Variant | kcat (glucosamine-6-phosphate [1]) | self-cleavage kobs at 160 uM GlcN6P (glucosamine-6-phosphate [2]) | self-cleavage kobs at 10000 uM GlcN6P (glucosamine-6-phosphate [3]) | self-cleavage kobs at 40 uM GlcN6P (glucosamine-6-phosphate [4]) | self-cleavage kobs at 640 uM GlcN6P (glucosamine-6-phosphate [5]) | self-cleavage kobs at 2500 uM GlcN6P (glucosamine-6-phosphate [6]) | KM (glucosamine-6-phosphate [7])
A36G C68G | 1.27e-05 ± 2.3e-06 s⁻¹ | – | – | – | – | – | –
A39G U57C | 0.000566 ± 0.0002 s⁻¹ | – | 0.000351 ± 6.4e-05 s⁻¹ | < 1e-05 s⁻¹ | 5.87e-05 ± 1.5e-05 s⁻¹ | 0.00013 ± 2.3e-05 s⁻¹ | –
A36U C71U | < 1e-05 s⁻¹ | – | – | – | < 1e-05 s⁻¹ | – | –
G38U G66C C71U | 1.04e-05 ± 1e-06 s⁻¹ | – | – | – | – | – | –
A39C G43U C68U | 9.32e-05 ± 1.5e-05 s⁻¹ | – | 7.63e-05 ± 1.8e-05 s⁻¹ | – | – | 5.95e-05 ± 1.4e-05 s⁻¹ | 1780 ± 810 µM
A36G C70U | 3.34e-05 ± 3.8e-06 s⁻¹ | – | 2.96e-05 ± 1.1e-05 s⁻¹ | – | – | 3.3e-05 ± 1.3e-05 s⁻¹ | –
G37A U54G | 0.00267 ± 0.00094 s⁻¹ | 0.000132 ± 2.9e-05 s⁻¹ | 0.00234 ± 0.00032 s⁻¹ | 6.88e-05 ± 1.3e-05 s⁻¹ | 0.000413 ± 9.4e-05 s⁻¹ | 0.000936 ± 0.00022 s⁻¹ | –
G37A A53C C71U | 9.8e-05 ± 3.3e-06 s⁻¹ | – | – | – | 3.79e-05 ± 1.4e-05 s⁻¹ | 6.98e-05 ± 1.5e-05 s⁻¹ | 1010 ± 85 µM
A39C C68U | 0.000495 ± 6.5e-05 s⁻¹ | 6.25e-05 ± 1.3e-05 s⁻¹ | 0.000445 ± 4.9e-05 s⁻¹ | 2.73e-05 ± 7e-06 s⁻¹ | 0.000159 ± 1.7e-05 s⁻¹ | 0.000367 ± 5.1e-05 s⁻¹ | 1180 ± 300 µM
A36C A64U | 1.13e-05 ± 3.6e-06 s⁻¹ | – | – | < 1e-05 s⁻¹ | < 1e-05 s⁻¹ | – | –
A36U U57A G66C | < 1e-05 s⁻¹ | – | – | – | – | – | –
A39G A48G | 0.000124 ± 2.2e-05 s⁻¹ | – | 0.000106 ± 1.4e-05 s⁻¹ | – | – | 0.00013 ± 2.7e-05 s⁻¹ | –
A39U G44A | 0.00136 ± 0.00031 s⁻¹ | 0.00021 ± 3.9e-05 s⁻¹ | 0.00144 ± 0.00021 s⁻¹ | 0.000115 ± 1.3e-05 s⁻¹ | 0.00078 ± 9.9e-05 s⁻¹ | 0.001 ± 0.00017 s⁻¹ | 572 ± 210 µM
A39U G44C | 0.000268 ± 4.5e-05 s⁻¹ | – | 0.000212 ± 3.2e-05 s⁻¹ | – | 6.01e-05 ± 1.7e-05 s⁻¹ | 0.0002 ± 3.9e-05 s⁻¹ | 1920 ± 770 µM
A39C A52G | 0.000297 ± 5.1e-05 s⁻¹ | – | 0.000217 ± 2.6e-05 s⁻¹ | – | 4.74e-05 ± 8.3e-06 s⁻¹ | 0.00017 ± 2.1e-05 s⁻¹ | 2850 ± 940 µM
G37A U49G | 7.59e-05 ± 1.4e-05 s⁻¹ | – | 6.04e-05 ± 1.3e-05 s⁻¹ | – | – | 4.94e-05 ± 1.8e-05 s⁻¹ | –
A36U C67G C68G C71U | 6.17e-05 ± 1.7e-05 s⁻¹ | – | 5.06e-05 ± 1.6e-05 s⁻¹ | 4.88e-05 ± 1.9e-05 s⁻¹ | 0.000121 ± 3e-05 s⁻¹ | 5.55e-05 ± 1.8e-05 s⁻¹ | –
G37A U47G | 0.000419 ± 0.0001 s⁻¹ | 9.69e-05 ± 1.9e-05 s⁻¹ | 0.000396 ± 5.4e-05 s⁻¹ | – | 0.000127 ± 1.6e-05 s⁻¹ | 0.000274 ± 4.4e-05 s⁻¹ | 1250 ± 600 µM
